Drawing on patent US20050058747, this text covers Percentage degradation of isolated soy proteins for one substance.

One data set concerns the target Soybean agglutinin (SBA) (UniProt P05046).
For data set [1], the target named is T1, soybean Bowman-Birk inhibitor (UniProt P01055).
T1 sequence: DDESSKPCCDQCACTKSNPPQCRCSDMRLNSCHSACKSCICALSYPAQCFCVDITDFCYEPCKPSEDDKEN

In data set [2] the target is T2, soybean Kunitz trypsin inhibitor (UniProt P01070).
T2 sequence: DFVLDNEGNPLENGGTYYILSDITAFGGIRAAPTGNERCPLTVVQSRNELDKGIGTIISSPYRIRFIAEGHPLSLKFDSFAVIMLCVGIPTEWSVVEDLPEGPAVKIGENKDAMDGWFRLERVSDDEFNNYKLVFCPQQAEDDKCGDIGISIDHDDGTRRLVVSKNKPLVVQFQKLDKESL

Sequence of Soybean agglutinin (SBA) (P05046 33-285): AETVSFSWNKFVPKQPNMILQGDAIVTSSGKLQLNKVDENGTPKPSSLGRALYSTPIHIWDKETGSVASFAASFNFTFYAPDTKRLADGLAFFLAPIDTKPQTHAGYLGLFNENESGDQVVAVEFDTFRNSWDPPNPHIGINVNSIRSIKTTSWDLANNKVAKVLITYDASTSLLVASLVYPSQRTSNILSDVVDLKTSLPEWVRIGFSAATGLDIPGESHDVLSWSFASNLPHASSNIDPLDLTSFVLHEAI

With “protease from Nocardiopsis sp. NRRL 18262”, the Percentage degradation of isolated soy proteins with Soybean agglutinin (SBA) worked out at 100%; in the data set with Soybean beta-conglycinin, 95%; in data set [1], 35%; with Soybean glycinin, 98%; in data set [2], 94%.
